Target: AR9 nvRNAP promoter-specificity subunit gp226 (sigma-like);AR9 nvRNAP betaN subunit gp105;AR9 nvRNAP betaC … (Bacillus phage AR9 (Bacillus subtilis …, UniProt A0A172JIC8;A0A172JI16;A0A172JHZ2;A0A172JIH0;A0A172JI62 …, ||||))
Test: X-ray crystallography; crystals from 150 mM MIB pH 5, 150 mM LiCl, 13% PEG 1500; 4 mM MgCl2 in DNA annealing buffer; Complex for structures: 34 uM holoenzyme + 50 uM DNA, 30 min at room temperature; DNA annealed in 20 mM Bis-tris propane pH 6.8, 100 mM NaCl, 4 mM MgCl2, 0.5 mM EDTA; crystallized at 19 C
Conditions: protein: recombinant;recombinant;recombinant;recombinant;recombinant; tags: ;;;;; copies: 1;1;1;1;1; 14 bp duplex with 18 nt 3' overhang on strand 1

B1: P077 promoter forked oligonucleotide, template [-16;+16] all U / non-template [+3;+16] (dsDNA)
DNA 1: CTCCAATATGTGATATAATATAUUGUUUATTG
DNA 2: ATCACATATTGGAG
modifications: deoxyuridine at the printed U positions of strand 1; both strands DNA
B1: binds.

Source: paper PMC9209446, “Structural basis of template strand deoxyuridine promoter recognition by a viral RNA polymerase”
